T1: CD81 (UniProt P60033 1-236, limits assumed)
T1 construct: whole, on cells; also called CD81 receptor
T1 sequence (looked up): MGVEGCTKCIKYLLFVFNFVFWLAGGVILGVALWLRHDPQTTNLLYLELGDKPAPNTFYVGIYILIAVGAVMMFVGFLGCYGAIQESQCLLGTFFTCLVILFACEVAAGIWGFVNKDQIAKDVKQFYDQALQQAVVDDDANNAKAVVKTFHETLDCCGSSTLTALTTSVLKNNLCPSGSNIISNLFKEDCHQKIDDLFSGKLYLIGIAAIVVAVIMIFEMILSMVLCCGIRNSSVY

B1: CD81K13 HC 02-hVH_1_3 / LC CD81K13 (antibody, V domains shown)
VH: QVQLVQSGAEVKKPGASVKVSCKASGYTFTDSYMHWVRQAPGQRLEWMGRIDTGNGNTKYSQKFQGRVTITTDTSASTAYMELSSLRSEDTAVYYCAPYGYGFHSWGQGTLVTVSS
VL: DIQMTQSPASLSVSVGETVTITCRASENIYRTLAWYLQKQGKSPQLLVYGATTLADGVPSRFSGSGSGTQYYLKINSLQSEDFGTYHCQHFWGTPWTFGGGTKVEIK
notes: human constant region
B2: CD81K13 HC 02-hVH_1_3 / LC 1b-hVK_3_15 (antibody, V domains shown)
VH: QVQLVQSGAEVKKPGASVKVSCKASGYTFTDSYMHWVRQAPGQRLEWMGRIDTGNGNTKYSQKFQGRVTITTDTSASTAYMELSSLRSEDTAVYYCAPYGYGFHSWGQGTLVTVSS
VL: EIVMTQSPATLSVSPGERATLSCRASENIYRTLAWYQQKPGQAPRLLIYGATTLADGIPARFSGSGSGTEFTLTISSLQSEDFAVYYCQHFWGTPWTFGQGTKVEIK
notes: human constant region
B3: CD81K13 HC 02-hVH_1_3 / LC 01-hVK_3_15 (antibody, V domains shown)
VH: QVQLVQSGAEVKKPGASVKVSCKASGYTFTDSYMHWVRQAPGQRLEWMGRIDTGNGNTKYSQKFQGRVTITTDTSASTAYMELSSLRSEDTAVYYCAPYGYGFHSWGQGTLVTVSS
VL: EIVMTQSPATLSVSPGERATLSCRASENIYRTLAWYQQKPGQAPRLLIYGATTRATGIPARFSGSGSGTEFTLTISSLQSEDFGVYYCQHFWGTPWTFGQGTKVEIK
notes: human constant region
B4: CD81K13 HC 01-hVH_1_f / LC 04-hVK_1_9 (antibody, V domains shown)
VH: EVQLVQSGAEVKKPGATVKISCKVSGYTFTDSYMHWVQQAPGKGLEWMGRIDTGNGNVKFDPKFQGRVTITADTSTDTAYMELSSLRSEDTAVYYCAPYGYGFHSWGQGTLVTVSS
VL: DIQLTQSPSFLSASVGDRVTITCRASENIYRTLAWYQQKPGKAPKLLIYAATTLASGVPSRFSGSGSGTEFTLTISSLQPEDFGTYYCQHFWGTPWTFGQGTKVEIK
notes: human constant region
B5: CD81K13 HC 01-hVH_1_f / LC 05-hVK_1_39 (antibody, V domains shown)
VH: EVQLVQSGAEVKKPGATVKISCKVSGYTFTDSYMHWVQQAPGKGLEWMGRIDTGNGNVKFDPKFQGRVTITADTSTDTAYMELSSLRSEDTAVYYCAPYGYGFHSWGQGTLVTVSS
VL: DIQMTQSPSSLSASVGDRVTITCRASENIYRTLAWYQQKPGKAPKLLIYAATTLASGVPSRFSGSGSGTDFTLTISSLQPEDFATYYCQHFWGTPWTFGQGTKVEIK
notes: human constant region
B6: CD81K13 HC 01-hVH_1_f / LC 07-hVK_1_27 (antibody, V domains shown)
VH: EVQLVQSGAEVKKPGATVKISCKVSGYTFTDSYMHWVQQAPGKGLEWMGRIDTGNGNVKFDPKFQGRVTITADTSTDTAYMELSSLRSEDTAVYYCAPYGYGFHSWGQGTLVTVSS
VL: DIQMTQSPSSLSASVGDRVTITCRASENIYRTLAWYQQKPGKVPKLLIYAATTLASGVPSRFSGSGSGTDFTLTISSLQPEDVGTYYCQKFWGTPWTFGQGTKVEIK
notes: human constant region
B7: CD81K13 HC 01-hVH_1_f / LC 5b-hVK_1_39 (antibody, V domains shown)
VH: EVQLVQSGAEVKKPGATVKISCKVSGYTFTDSYMHWVQQAPGKGLEWMGRIDTGNGNVKFDPKFQGRVTITADTSTDTAYMELSSLRSEDTAVYYCAPYGYGFHSWGQGTLVTVSS
VL: DIQMTQSPSSLSASVGDRVTITCRASENIYRTLAWYQQKPGKAPKLLIYGATTLADGVPSRFSGSGSGTDFTLTISSLQPEDFATYYCQHFWGTPWTFGQGTKVEIK
notes: human constant region
B8: CD81K13 HC 01-hVH_1_f / LC 5b-hVK_1_39-GA (antibody, V domains shown)
VH: EVQLVQSGAEVKKPGATVKISCKVSGYTFTDSYMHWVQQAPGKGLEWMGRIDTGNGNVKFDPKFQGRVTITADTSTDTAYMELSSLRSEDTAVYYCAPYGYGFHSWGQGTLVTVSS
VL: DIQMTQSPSSLSASVGDRVTITCRASENIYRTLAWYQQKPGKAPKLLIYGATTLADGVPSRFSGSGSGTDFTLTISSLQPEDFATYYCQHFWGTPWTFGQGTKVEIK
notes: human constant region
B9: CD81K13 HC 01-hVH_1_f / LC 06-hVK_1_39 (antibody, V domains shown)
VH: EVQLVQSGAEVKKPGATVKISCKVSGYTFTDSYMHWVQQAPGKGLEWMGRIDTGNGNVKFDPKFQGRVTITADTSTDTAYMELSSLRSEDTAVYYCAPYGYGFHSWGQGTLVTVSS
VL: DIQMTQSPSSLSASVGDRVTITCRASENIYRTLAWYQQKPGKAPKLLIYAATTLASGVPSRFSGSGSGTDFTLTISSLQPEDFGTYYCQHFWGTPWTFGQGTKVEIK
notes: human constant region

Biological target: T1, CD81
Assay: cell ELISA;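 note: antibody binding to HuH7 cells expressing CD81 versus a CD81-negative HuH7 control line, bound antibody detected by secondary reagent, absorbance at 450 nm with 620 nm reference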
Experimental: For the binding cell ELISA assay, HuH7-Rluc-H3 (positive cell line expressing CD81) and HuH7-Rluc-L1 (negative control cell line) were propagated in F-12 DMEM medium with 10% FCS at 37° C. and 5% CO₂. On day 1, the cells were trypsinized at approximately 90% confluence and resuspended at 4×10⁵ cells/mL. […] On day 2, the antibody samples to be tested were prepared in a separate polypropylene round bottom plate with a twofold desired concentration with a final volume of 120 μl. All of the assay samples were diluted in cell culture medium. […] After fixation, each well was washed 3 times with 200 μL PBS/0.05% Tween. The secondary incubation step for detection of bound anti-CD81 antibodies was performed for 2 h at room temperature on a reciprocal shaker. […] Each well was washed three times with 200 μL PBS/0.05% Tween to remove unbound antibodies. […] The absorbance was read using the ELISA Tecan reader at 450 nm with 620 nm reference wavelength.

First: B1
Second: B2
The ELISA data of the first is higher: 0.585 for the first, 0.347 for the second.

First: B3
Second: B4
The ELISA data of the first is higher: 0.314 for the first, 0.244 for the second.

Going from B5 to B6, the ELISA data falls from 0.458 to 0.086.

Compared with B7, B8 is lower in ELISA data: 0.89 for the first, 0.848 for the second.

Work on B9 yielded an ELISA data of 0.822.
